By Kd is commonly meant a measure of binding affinity in units of concentration.

Test [1] deals with B30.2 domain of rhesus TRIM5α (rhesus macaque) (UniProt Q0PF16). Briefly: dual-focus fluorescence correlation spectroscopy (2fFCS); 2 nM Alexa 488-labelled B30.2 or CypA titrated with unlabelled capsid surrogate; 7°C; hydrodynamic radius against concentration, viscosity corrected with CypA as reference; Kd per monomeric capsid equivalent.
The target of test [2] is Flag-tagged human cyclophilin A (human) (UniProt P62937). Described as above.
For test [3], the target named is B30.2 domain of human TRIM5α (human) (UniProt Q9C035). The description is as above.
For test [4], the target named is Flag-tagged human cyclophilin A (human) (UniProt P62937). The test can be described thus: dual-focus fluorescence correlation spectroscopy (2fFCS).

Chain of Flag-tagged human cyclophilin A (human) (P62937 whole entry): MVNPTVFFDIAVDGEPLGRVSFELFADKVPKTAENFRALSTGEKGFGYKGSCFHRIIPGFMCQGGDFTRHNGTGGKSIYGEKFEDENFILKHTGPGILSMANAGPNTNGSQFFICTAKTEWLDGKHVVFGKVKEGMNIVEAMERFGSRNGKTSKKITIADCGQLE
Chain of B30.2 domain of rhesus TRIM5α (rhesus macaque) (Q0PF16 other isoform, or with tags, fused parts or gaps): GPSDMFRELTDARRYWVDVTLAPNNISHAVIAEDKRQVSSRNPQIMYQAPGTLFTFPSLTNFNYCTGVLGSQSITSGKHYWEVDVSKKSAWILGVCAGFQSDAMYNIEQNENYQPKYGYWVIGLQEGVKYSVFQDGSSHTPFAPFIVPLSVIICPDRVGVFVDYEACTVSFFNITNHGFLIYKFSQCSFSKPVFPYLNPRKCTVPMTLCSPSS
Chain of B30.2 domain of human TRIM5α (human) (Q9C035 286-493): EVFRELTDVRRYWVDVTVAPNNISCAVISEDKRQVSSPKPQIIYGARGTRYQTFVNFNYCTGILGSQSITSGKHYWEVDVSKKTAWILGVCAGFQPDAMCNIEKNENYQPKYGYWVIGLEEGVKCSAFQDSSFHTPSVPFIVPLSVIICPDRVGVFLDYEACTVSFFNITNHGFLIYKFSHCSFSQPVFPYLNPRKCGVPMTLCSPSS

In the case of “TMEA-cross-linked R82C E180D V181A HIV-1 capsid trimer (complex)”, the figures for the Kd in test [1], in test [2] and in test [3] were 440 µM, 17.8 µM and 840 µM, respectively.

Turning to “disulfide-linked A14C E45C W184A M185A HIV-1 capsid hexamer (complex)”, the Kd turned out to be 600 µM in test [1], 28.9 µM in test [2] and 540 µM in test [3].

On to “wild-type, full-length HIV-1 capsid protein (from UniProt P12493 133-363) (natural protein; other documents disagree on this pair)”, for which, in test [4], the Kd was 26.5 µM.

For the origin of these results see PMC5809731.
